Where two headings read alike, the source gives them in different places.
Assays:
[1] = molecular target: T1, SIRT1 catalytic domain (SIRT1^CAT), residues 234-510 (human, UniProt Q96EB6 234-510); assay: SEC
T1 sequence (looked up): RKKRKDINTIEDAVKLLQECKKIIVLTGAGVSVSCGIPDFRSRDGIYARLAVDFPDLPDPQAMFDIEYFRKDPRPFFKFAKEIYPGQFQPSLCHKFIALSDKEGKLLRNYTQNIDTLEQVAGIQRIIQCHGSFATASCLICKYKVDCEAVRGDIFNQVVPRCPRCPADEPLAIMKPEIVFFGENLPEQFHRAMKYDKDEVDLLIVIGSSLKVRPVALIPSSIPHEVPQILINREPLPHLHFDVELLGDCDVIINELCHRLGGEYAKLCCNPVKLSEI

[2] = molecular target: T2, SIRT1^CAT D481A (human, UniProt Q96EB6 234-510, D481A); assay: SEC
T2 sequence (looked up): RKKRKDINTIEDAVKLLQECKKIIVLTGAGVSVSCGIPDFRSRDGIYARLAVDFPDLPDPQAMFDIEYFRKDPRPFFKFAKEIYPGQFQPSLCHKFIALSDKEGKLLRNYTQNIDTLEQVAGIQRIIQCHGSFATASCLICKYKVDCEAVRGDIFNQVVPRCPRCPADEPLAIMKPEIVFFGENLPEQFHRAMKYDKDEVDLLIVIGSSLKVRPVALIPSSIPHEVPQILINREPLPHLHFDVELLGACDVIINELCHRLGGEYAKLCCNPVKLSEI

[3] = molecular target: T3, SIRT1^CAT H363A (human, UniProt Q96EB6 234-510, H363A); assay: SEC
T3 sequence (looked up): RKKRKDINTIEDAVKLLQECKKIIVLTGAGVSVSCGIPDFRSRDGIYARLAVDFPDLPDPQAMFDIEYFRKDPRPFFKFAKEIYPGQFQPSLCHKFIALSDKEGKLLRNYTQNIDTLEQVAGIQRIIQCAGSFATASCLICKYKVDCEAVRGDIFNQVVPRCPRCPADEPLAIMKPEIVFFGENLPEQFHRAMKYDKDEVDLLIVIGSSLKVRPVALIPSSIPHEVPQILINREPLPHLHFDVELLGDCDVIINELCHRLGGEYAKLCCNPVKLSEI

[4] = molecular target: T4, SIRT1^CAT S265A (human, UniProt Q96EB6 234-510, S265A); assay: SEC
T4 sequence (looked up): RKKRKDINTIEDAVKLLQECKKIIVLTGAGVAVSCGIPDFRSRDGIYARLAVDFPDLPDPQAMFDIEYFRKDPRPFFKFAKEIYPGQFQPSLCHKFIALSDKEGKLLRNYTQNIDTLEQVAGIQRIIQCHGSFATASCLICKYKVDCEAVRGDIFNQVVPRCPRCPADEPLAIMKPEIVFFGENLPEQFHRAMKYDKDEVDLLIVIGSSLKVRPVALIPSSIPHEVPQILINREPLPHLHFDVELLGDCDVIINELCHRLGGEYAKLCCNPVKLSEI

[5] = molecular target: T5, SIRT1^CAT I347A (human, UniProt Q96EB6 234-510, I347A); assay: SEC
T5 sequence (looked up): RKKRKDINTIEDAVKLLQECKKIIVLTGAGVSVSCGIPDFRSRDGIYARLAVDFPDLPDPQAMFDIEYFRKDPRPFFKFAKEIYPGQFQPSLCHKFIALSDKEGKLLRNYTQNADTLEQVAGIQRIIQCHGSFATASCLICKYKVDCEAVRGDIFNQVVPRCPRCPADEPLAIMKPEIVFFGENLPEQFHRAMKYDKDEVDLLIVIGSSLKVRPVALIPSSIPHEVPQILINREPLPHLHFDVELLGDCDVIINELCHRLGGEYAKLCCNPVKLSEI

[6] = molecular target: T6, SIRT1^CAT F414A (human, UniProt Q96EB6 234-510, F414A); assay: SEC
T6 sequence (looked up): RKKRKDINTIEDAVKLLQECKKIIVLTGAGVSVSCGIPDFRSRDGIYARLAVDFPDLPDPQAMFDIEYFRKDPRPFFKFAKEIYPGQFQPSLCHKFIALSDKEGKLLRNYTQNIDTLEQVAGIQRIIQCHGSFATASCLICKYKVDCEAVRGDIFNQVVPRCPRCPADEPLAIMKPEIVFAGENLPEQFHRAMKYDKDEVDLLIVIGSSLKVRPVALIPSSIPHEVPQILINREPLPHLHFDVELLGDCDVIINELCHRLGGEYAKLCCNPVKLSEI

[7] = molecular target: T7, SIRT1^CAT Q345A (human, UniProt Q96EB6 234-510, Q345A); assay: SEC
T7 sequence (looked up): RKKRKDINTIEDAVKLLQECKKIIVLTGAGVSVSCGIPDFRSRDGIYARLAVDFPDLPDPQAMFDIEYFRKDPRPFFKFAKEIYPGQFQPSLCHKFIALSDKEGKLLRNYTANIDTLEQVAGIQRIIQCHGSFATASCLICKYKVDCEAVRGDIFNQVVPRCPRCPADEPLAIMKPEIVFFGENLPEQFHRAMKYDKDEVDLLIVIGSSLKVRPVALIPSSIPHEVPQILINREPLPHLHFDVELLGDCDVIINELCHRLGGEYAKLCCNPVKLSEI

[8] = molecular target: T8, SIRT1^CAT R466A (human, UniProt Q96EB6 234-510, R466A); assay: SEC
T8 sequence (looked up): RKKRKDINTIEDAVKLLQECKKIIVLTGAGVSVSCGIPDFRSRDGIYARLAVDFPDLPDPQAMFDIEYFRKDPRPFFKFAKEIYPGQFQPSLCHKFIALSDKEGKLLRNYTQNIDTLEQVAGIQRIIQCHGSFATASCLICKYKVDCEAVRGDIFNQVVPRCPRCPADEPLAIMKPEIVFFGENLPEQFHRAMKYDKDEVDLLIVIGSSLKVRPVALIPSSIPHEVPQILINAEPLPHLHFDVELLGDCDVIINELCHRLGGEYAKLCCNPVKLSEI

[9] = molecular target: T9, SIRT1^CAT R276A (human, UniProt Q96EB6 234-510, R276A); assay: SEC
T9 sequence (looked up): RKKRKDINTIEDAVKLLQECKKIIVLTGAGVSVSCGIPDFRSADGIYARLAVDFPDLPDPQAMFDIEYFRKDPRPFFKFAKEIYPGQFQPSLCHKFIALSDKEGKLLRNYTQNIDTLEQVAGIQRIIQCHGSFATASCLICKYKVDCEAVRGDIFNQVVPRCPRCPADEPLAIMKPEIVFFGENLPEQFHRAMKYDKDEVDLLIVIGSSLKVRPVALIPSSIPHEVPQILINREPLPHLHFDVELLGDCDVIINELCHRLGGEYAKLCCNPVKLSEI

[10] = molecular target: T10, His-tagged SIRT1 catalytic domain (His-tagged SIRT1^CAT) (human, UniProt Q96EB6 234-510); assay: pull-down
T10 sequence (looked up): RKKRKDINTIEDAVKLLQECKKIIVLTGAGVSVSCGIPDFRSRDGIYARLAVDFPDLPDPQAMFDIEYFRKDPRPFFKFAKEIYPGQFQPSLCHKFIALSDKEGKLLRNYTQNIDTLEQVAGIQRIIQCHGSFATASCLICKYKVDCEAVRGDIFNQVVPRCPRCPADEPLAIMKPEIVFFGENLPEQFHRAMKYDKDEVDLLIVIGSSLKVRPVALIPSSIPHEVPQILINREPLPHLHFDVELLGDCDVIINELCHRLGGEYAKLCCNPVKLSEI

[11] = molecular target: T1, SIRT1 catalytic domain (SIRT1^CAT), …; assay: SEC; remark: listed apart in the source
[12] = molecular target: T1, SIRT1 catalytic domain (SIRT1^CAT), …; assay: SEC; remark: listed apart in the source

Measured: binding result

QYLFLPPNRYIFHGAEVYSDSEDDV (domain or fragment, human, UniProt Q96EB6 641-665, looked up) [C-terminal regulatory segment of SIRT1 (CTR), residues 641-665]
not listed: [10] | [11] | [12]
binds: all other assays above

QYLFLPPNRYIFHGAEVYSDSEDDV (domain or fragment, human, UniProt Q96EB6 641-665, looked up) [GST-tagged C-terminal regulatory segment of SIRT1 (GST-CTR)]
binds: [10]

QYLFLPPNRYIFHGAEVYSDSEDDV (domain or fragment, human, UniProt Q96EB6 641-665, looked up) [SUMO-tagged C-terminal regulatory segment of SIRT1 (SUMO-CTR), residues 641-665]
binds: [10] | [11]

QYLFLPPNRYIFHGAAVYSDSEDDV (domain or fragment, human, UniProt Q96EB6 641-665, looked up) [CTR E656A]
binds: [12]
